According to patent US20230248800A1:

Molecular target: human V1a receptor (human) (UniProt P37288)
Assay: cell-based or functional assay

human V1a receptor (human), sequence (P37288 whole entry): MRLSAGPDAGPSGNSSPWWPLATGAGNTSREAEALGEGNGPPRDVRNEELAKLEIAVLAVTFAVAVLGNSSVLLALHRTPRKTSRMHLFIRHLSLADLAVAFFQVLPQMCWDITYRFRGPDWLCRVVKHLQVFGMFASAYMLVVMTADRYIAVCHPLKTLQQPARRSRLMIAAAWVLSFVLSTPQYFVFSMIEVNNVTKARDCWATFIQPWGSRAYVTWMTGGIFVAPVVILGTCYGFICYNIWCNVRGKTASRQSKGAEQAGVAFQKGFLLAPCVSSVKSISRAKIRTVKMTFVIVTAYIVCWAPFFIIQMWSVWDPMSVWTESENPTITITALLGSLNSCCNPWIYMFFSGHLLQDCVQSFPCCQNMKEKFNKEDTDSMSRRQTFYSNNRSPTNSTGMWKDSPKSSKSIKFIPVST

Estimated V1a EC50 (calcium flux): 1.65 nM
V1a Highest agonist effect (% of AVP): 92.1 % of AVP
Substance: Lysine vasopressin (LVP) (from UniProt P01183 20-28) (peptide)
